Key:
[1] = biological target: qNOR from Neisseria meningitidis (NmqNOR), wild type (Neisseria meningitidis); experiment: cryo-EM structure; cryo-EM dataset of wild-type NmqNOR, 9 Å reconstruction (fig. S1); conditions not given
[2] = biological target: AxqNOR Val495Ala-BRIL (Alcaligenes xylosoxidans); experiment: cryo-EM structure; single-particle cryo-EM of detergent-solubilised qNOR-BRIL (50 mM tris, 150 mM NaCl, 0.05% DTM; wild type pH 7.0 at 3 mg/ml, Val495Ala pH 7.5 at 5 mg/ml), C2 symmetry imposed

| stoichiometry N [1] | Substance | stoichiometry N [2] |
| --- | --- | --- |
| 2 | qNOR from Neisseria meningitidis (NmqNOR), wild type (enzyme) |  |
|  | AxqNOR Val495Ala-BRIL (enzyme) | 2 |
